Values quoted from earlier work in article PMC7955094.

Legend:
His19 = His19 (UniProt position 19, ILSALHFMAWT); details: membrane-bound H27A BM2 tetramer
His37 = His37 (UniProt position 37, IIGILHLILWI); details: AM2 tetramer

Substance: Influenza B virus M2 protein (BM2) H27A mutant (Influenza B virus (strain of the quoted study not stated); H27A)
- pKa (His19): 5.6

Substance: Influenza A virus M2 protein (AM2) proton channel (Influenza A virus (strain not stated))
- pKa (His37): 5.9
